The text below walks through data of patent US8809529B2, “Imidazo[1,2-α]pyrazine derivatives” (Promega Corporation, priority 2010, dated 2014).

Numbering of substitutions follows the chain as printed. Names may count otherwise.

The nature of series [1]: Brightness and relative specificity of 9B8 and 9B8 opt+K33N variants in E. coli lysates. As to conditions: for Fold over coelenterazine / Fold over 9B8: bacterial lysates; for Fold over coelenterazine: PBI-3939 luminescence divided by native coelenterazine luminescence; for Fold over 9B8: luminescence normalized to 9B8 opt. The class given is biochemical. On the procedure:
Additional variants with improved relative specificity to novel PBI-3939 were generated as described previously by saturating amino acid positions 18, 68, 72, 75, and 90 in variant 9B8. […] Relative specificity was determined from the ratio of the luminescence of the variant with PBI-3939 to the luminescence of the variant with native coelenterazine, normalized to the ratio of corresponding luminescence of 9B8. Table 8 lists 9B8 variants (“Variant”) with at least 1.1× fold-increase in relative specificity for PBI-3939. […] 9B8 variants with amino acid substitutions K, D, F, G, Y, W, and H at position 18 had the highest fold improvement in relative specificity.
A new OgLuc library was created using 9B8opt+K33N as a starting template. The random library was created using DIVERSIFY® PCR Random Mutagenesis Kit (ClonTech; Catalog #630703). Condition 5 (as listed in the user manual) was used to generate additional variants, and the average mutation rate was calculated to be 2.6 mutations per gene by compiling sequence data from 83 randomly selected clones. This PCR library was cloned into the pF4Ag-based, non-fusion vector background described previously and the sandwich background, i.e., Id-OgLuc-HT7 (described in Example 45). Variants in the pF4Ag-base non-fusion vector background are designated with (NF). Variants in the sandwich vector background are designated with (F). In order to clone the PCR product into both vectors, an amino acid, i.e., a glycine, was appended to the variant sequence in pF4Ag, generating a new position 170 in the OgLuc variant (“170G”). The 170G is present in the sandwich construct, but in this case is considered part of the linker between OgLuc and HT7. For each library, 4,400 E. coli clones were assayed as described previously with the following exceptions. […] The assay buffer contained 100 mM MES pH 6.0 instead of HEPES, and 35 mM thiourea. The assay volumes were as follows: 10 μL cells, 40 μL lysis buffer, and 50 μL assay buffer.
(§1) Based on the above data, further combination variants were designed and generated (see Table 10) in the context of the pF4Ag-based non-fusion vector background without the 170G. The variants were analyzed in E. coli, HEK293 and NIH3T3 cells as described above and compared to 9B8 opt+K33N. The variants were also examined for luminescence with native coelenterazine.
E. coli lysates containing the variants were prepared and analyzed as described previously. Luminescence generated from the lysates was measured using the novel PBI-3939 and native coelenterazine as substrates. The luminescence of the variants was normalized to the luminescence generated by 9B8 opt (Table 12). The relative specificity of the variants for PBI-3939 and native coelenterazine was calculated by dividing the luminescence of the variants using PBI-3939 as a substrate with the luminescence of the variants using native coelenterazine as a substrate (Table 12).

Series [2] in a line: Luminescence of OgLuc variants expressed in HEK293 cells. The class given is cell-based, human. As to conditions: for Increase in Luminescence: HEK293: normalized to 9B8 opt. On the procedure:
(§2) The PCR library in the pF4Ag-based non-fusion background was screened for additional variants with increased luminescence compared to 9B8 opt+K33N+170G (SEQ ID NOs: 68 and 69). Selected variants were then assayed in HEK293 and NIH3T3 cells. For each cell type, 15,000 cells were plated and grown overnight at 37° C. The next day, the cells were transfected as described in Example 25 with 10 ng pGL4.13 (Promega Corp.) as a transfection control and 100 ng of the OgLuc test DNA. The media was removed, and the cells were lysed with 100 μL of lysis buffer as described in Example 25 except the lysis buffer contained 100 mM MES pH 6.0 instead of HEPES, and luminescence measured using a GLOMAX® Luminometer.
as §1
(§3) The brightness of the variants expressed in HEK293 and NIH3T3 cells was measured as described previously. The luminescence of the variants was normalized to the luminescence generated by 9B8 opt (Table 27).
(§4) The variants 9B8 opt+K33N+T39T+K43R+Y68D (“V2”; SEQ ID NOs: 92 and 93), 9B8 opt+K33N+L27V+K43R+Y68D (SEQ ID NOs: 339 and 340), 9B8 opt+K33N+L27V+T39T+K43R+S66N (SEQ ID NOs: 341 and 342), and 9B8 opt+K33N+L27V+T39T+K43R+Y68D (“L27V”; SEQ ID NOs: 88 and 89) were subcloned into the Id-OgLuc-HT7 sandwich background as described above and assayed in HEK293 and NIH3T3 cells as described above. The luminescence generated by the sandwiched variants were compared to the luminescence generated by the […] sandwich (SEQ ID NOs: 59 and 60) (Table 38). The L27V sandwich (SEQ ID NOs: 90 and 91) and V2 sandwich (SEQ ID NOs: 94 and 95) had at least 1.3× fold-increase in luminescence in HEK293 and NIH3T3 cells.
(§5) The sandwich and non-sandwich versions of the variants V2, 9B8 opt+K33N+L27V+K43R+Y68D, 9B8 opt+K33N+L27V+T39T+K43R+S66N, and L27V were assayed in HEK293 and NIH3T3 cells as described in Example 37. The luminescence generated by the non-sandwiched variants was compared to the luminescence generated by the sandwiched variants (Table 39).

A short description of series [3]: Luminescence of OgLuc variants expressed in NIH3T3 cells. The class given is cell-based. As to conditions: for Increase in Luminescence: NIH3T3: normalized to 9B8 opt. On the procedure:
as §2, §1, §3, §4, §5

Series [4] in a line: Enzyme kinetics of OgLuc variants (Km, Vmax). The class given is biochemical, E. coli. To be noted: PBI-3939, average of three replicates. On the procedure: Using methods known in the art, enzyme kinetic assays measuring luminescence were performed with the lysates of E. coli containing N and the IV variants 15C1, 9B8, 9F6, and 9A3. […] Two fold serial dilutions of PBI-3939 in the assay buffer described previously in Example 26 were assayed with the diluted lysates. […] Variants 9B8 and 9F6 had higher Km values compared to IV while Km values for the other variants were unchanged.
Luminescence was measured on a TECAN® INFINITE® F500 luminometer.
The enzyme kinetics values were determined for the OgLuc variants as described previously, except luminescence was measured using a GLOMAX® luminometer. Three replicates were used for each variant.

Series [5] is classed as physicochemical, E. coli. As to conditions: for ½ life hours: 60° C., assay buffer 100 mM MES pH 6.0. On the procedure: Aliquots were removed at different time-points and placed on dry ice to freeze the samples. […] Luminescence was measured on a GLOMAX® luminometer (Promega Corp.).
The thermal stability of the variants at 60° C. was examined as described above, except the assay buffer contained 100 mM MES pH 6.0 instead of HEPES.

Where [6] appears, read: relative specificity for PBI-3939.

B1: L27V: 9B8 opt+K33N variant with L27V, T39T, K43R, Y68D (protein)
chain: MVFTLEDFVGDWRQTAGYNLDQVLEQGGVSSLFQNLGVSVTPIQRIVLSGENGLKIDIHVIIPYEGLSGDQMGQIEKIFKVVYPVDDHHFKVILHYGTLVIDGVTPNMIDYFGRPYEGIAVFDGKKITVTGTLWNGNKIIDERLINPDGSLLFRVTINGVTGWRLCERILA
For B1, in series [1], the Fold over coelenterazine stood at 110 and the “Fold over 9B8” value came to 1.8. Besides, the “Fold over 9B8 opt + K33N: E. coli” value in series [1] (luminescence, PBI-3939) amounted to 0.9. The “Fold over Native Coelenterazine: E. coli” value in series [1] (setting [6]) was determined as 85.2. Moreover, in series [2], the “Fold-Decrease in Luminescence in the Presence of Sandwich Background: HEK 293” value was found to be 6 and the “Increase in Luminescence: HEK293” value came out at 1.6. For the same molecule, the “Fold over 9B8 opt + K33N: HEK293” value in series [2] (luminescence, PBI-3939) is recorded as 0.8. The “Fold over Native Coelenterazine: HEK293” value in series [2] (setting [6]) is 97. For the same molecule, in series [3], the “Fold-Decrease in Luminescence in the Presence of Sandwich Background: NIH 3T3 cells” value stood at 18 and the “Increase in Luminescence: NIH3T3” value was found to be 1.6. Further, the “Fold over 9B8 opt + K33N: NIH3T3” value in series [3] (luminescence, PBI-3939) is listed as 0.7. In addition, the “Fold over Native Coelenterazine: NIH3T3” value in series [3] (setting [6]) was 85. In series [4], the Km came to 13.9 µM and the Vmax is listed as 190,000,000 RLU/0.5 sec. Besides, the ½ life hours in series [5] worked out at 21.7 h.

B2: 9B8: IV variant with Q18L, F68Y, L72Q, M75K; in Tables 12, 22, 23, 26, 27 “9B8” stands for 9B8 opt (protein)
chain: B1 chain with V29L, N35K, R45K, D70Y
On to B2, for which, in series [1], the Fold over coelenterazine came to 7 and the “Fold over 9B8” value turned out to be 1.0. For the same molecule, the “Increase in Luminescence: HEK293” value in series [2] was determined as 1.0. In series [3], the “Increase in Luminescence: NIH3T3” value turned out to be 1.0. In series [4], the Km amounted to 7.7 µM and the Vmax was 86,000,000 RLU/0.5 sec. For the same molecule, the ½ life hours in series [5] was found to be 5.1 h.

B3: 9B8 opt: codon optimized version of the 9B8 variant (protein)
chain: B1 chain with V29L, N35K, R45K, D70Y
For B3, the RLU in series [5] (luminescence at start of incubation (t=0)) is 23,283,252,000 RLU. The “T1/2(60° C.)” value in series [5] (pH 7) stood at 5.7 h.

Usually Km stands for the substrate concentration at which the rate is half of its maximum.
